Assay results reported in paper PMC4381075, “An intrinsically disordered region of methyl-CpG binding domain protein 2 (MBD2) recruits the histone deacetylase core of the NuRD complex”.

What was measured:
MBD2FLsc (human) [1] = biological target: MBD2FLsc (human) (UniProt Q9UBB5); assay: fluorescence polarization; details: 5-methyl-C at position 9 of strand 1 (central CpG), complement mC at position 8 implied, not given, SPR: 10 mM HEPES pH 7.4, 50 mM NaCl, 3 mM MgCl2, 0.1 mM EDTA, 1 mM DTT, 0.05% polysorbate 20, FP: 10 mM HEPES pH 7.5, 50 or 150 mM NaCl
MBD2FLsc (human) [2] = biological target: MBD2FLsc (human) (UniProt Q9UBB5); assay: SPR; details: 5-methyl-C at position 9 of strand 1 (central CpG), complement mC at position 8 implied, not given, SPR: 10 mM HEPES pH 7.4, 50 mM NaCl, 3 mM MgCl2, 0.1 mM EDTA, 1 mM DTT, 0.05% polysorbate 20, FP: 10 mM HEPES pH 7.5, 50 or 150 mM NaCl
MBD2MBD [3] = biological target: T1, MBD2MBD (human, UniProt Q9UBB5 150-214); assay: fluorescence polarization; 50 mM NaCl; SPR: 10 mM HEPES pH 7.4, 50 mM NaCl, 3 mM MgCl2, 0.1 mM EDTA, 1 mM DTT, 0.05% polysorbate 20; FP: 10 mM HEPES pH 7.5, 50 or 150 mM NaCl, 3 mM MgCl2, 0.1 mM EDTA, 1 mM DTT, 0.02% azide; temperature not stated; details: protein: recombinant; tags: thioredoxin-His fusion (modified pET32a; tag retained); label: 3' FAM on reverse strand; blunt
MBD2(150-260) [4] = biological target: T2, MBD2(150-260) (human, UniProt Q9UBB5 150-260); assay: as above; details: protein: recombinant; tags: thioredoxin-His fusion (modified pET32a; tag retained); label: 3' FAM on reverse strand; blunt
MBD2(150-260) [5] = biological target: T2, MBD2(150-260); assay: SPR; 50 mM NaCl, 3 mM Mg2+; SPR: 10 mM HEPES pH 7.4, 50 mM NaCl, 3 mM MgCl2, 0.1 mM EDTA, 1 mM DTT, 0.05% polysorbate 20; FP: 10 mM HEPES pH 7.5, 50 or 150 mM NaCl, 3 mM MgCl2, 0.1 mM EDTA, 1 mM DTT, 0.02% azide; temperature not stated; details: protein: recombinant; tags: thioredoxin-His fusion (modified pET32a; tag retained); label: 3' biotin on forward strand; blunt
MBD2MBD [6] = biological target: T1, MBD2MBD; assay: SPR steady state; 50 mM NaCl, 3 mM Mg2+; SPR: 10 mM HEPES pH 7.4, 50 mM NaCl, 3 mM MgCl2, 0.1 mM EDTA, 1 mM DTT, 0.05% polysorbate 20; FP: 10 mM HEPES pH 7.5, 50 or 150 mM NaCl, 3 mM MgCl2, 0.1 mM EDTA, 1 mM DTT, 0.02% azide; temperature not stated; details: protein: recombinant; tags: thioredoxin-His fusion (modified pET32a; tag retained); label: 3' biotin on forward strand; blunt

Sequence of MBD2FLsc (human) (Q9UBB5 whole entry, the tested form may be a part): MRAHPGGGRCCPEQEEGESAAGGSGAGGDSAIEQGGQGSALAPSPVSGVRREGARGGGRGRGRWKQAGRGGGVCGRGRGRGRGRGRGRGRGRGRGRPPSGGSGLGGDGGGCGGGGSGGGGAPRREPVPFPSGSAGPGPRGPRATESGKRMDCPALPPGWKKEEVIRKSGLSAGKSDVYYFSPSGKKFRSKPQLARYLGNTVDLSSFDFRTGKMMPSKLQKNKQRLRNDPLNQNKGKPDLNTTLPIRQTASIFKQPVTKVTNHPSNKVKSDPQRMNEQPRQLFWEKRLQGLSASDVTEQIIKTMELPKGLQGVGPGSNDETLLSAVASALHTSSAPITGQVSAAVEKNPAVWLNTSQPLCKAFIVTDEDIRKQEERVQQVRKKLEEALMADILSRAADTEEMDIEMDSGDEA
T1 sequence (Q9UBB5 150-214): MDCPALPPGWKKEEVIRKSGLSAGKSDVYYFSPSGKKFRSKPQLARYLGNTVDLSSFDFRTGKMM
T2 sequence (Q9UBB5 150-260): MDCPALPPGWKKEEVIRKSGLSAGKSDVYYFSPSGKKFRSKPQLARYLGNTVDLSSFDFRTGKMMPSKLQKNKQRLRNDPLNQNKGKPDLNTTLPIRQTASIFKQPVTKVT

GAGGCGCTCGGCGGCAG (double strand) [17 bp central mCpG, FP]
binding signal (fold affinity vs 50 mM NaCl) (MBD2FLsc (human) [1]): 0.1
binding signal (fold affinity vs MBD2MBD) (MBD2FLsc (human) [1]): 100

GAGGCGCTCGGCGGCAG (double strand) [17 bp central mCpG, SPR]
Kd (MBD2FLsc (human) [2]): 2 nM

B1: 17 bp central mCpG, FP (dsDNA)
DNA 1: GAGGCGCTCGGCGGCAG
DNA 2: CTGCCGCCGAGCGCCTC
modifications: 5-methyl-C at position 9 of strand 1 (central CpG); complement mC at position 8 implied, not given
binding signal (MBD2MBD [3]): ~1 fold affinity (reference)
binding signal (MBD2(150-260) [4]): ~100 fold affinity vs MBD2MBD

B2: 17 bp central mCpG, SPR (dsDNA)
DNA 1: GAGGCGCTCGGCGGCAG
DNA 2: CTGCCGCCGAGCGCCTC
modifications: 5-methyl-C at position 9 of strand 1 (central CpG); complement mC at position 8 implied, not given
Kd (MBD2(150-260) [5]): 20 nM
Kd (MBD2MBD [6]): 330 nM
